{"source": "the supplement of paper PMC9170038", "data": [{"system": "MS2 coat protein", "assay": "apparent KD of MS2 coat protein; higher = weaker reporter binding", "details": "Eterna round: R107; input ligand: arginine 13.2 mM", "description": "(§1)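 RNA-MaP round R107: designed RNA switches with theophylline, tryptophan, arginine or FMN aptamers are transcribed on-chip within common flanks. They are titrated with SNAP-549-labelled MS2 coat protein in RNA-MaP buffer (100 mM Tris pH 7.5, 80 mM KCl, 4 mM MgCl2), without ligand or with the indicated ligand. Median apparent KD per design.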", "units": {"apparent KD of MS2 coat protein": "nM"}, "values": [{"sequence": "GGGCUUGUGGUGCGGCGUGUUCCGCUCCGUCGAGGACCGGUACGGCCGCCACUCGACAUGAGGAUCACCCAUGUGCGAGCGCGCG [#1 Exclusion - Tryptophan A Attempt #7 (HarryS)]", "apparent KD of MS2 coat protein": 11.4}]}, {"system": "MS2 coat protein", "assay": "apparent KD of MS2 coat protein; higher = weaker reporter binding", "details": "Eterna round: R107; input ligand: none", "description": "as §1", "units": {"apparent KD of MS2 coat protein": "nM"}, "values": [{"sequence": "AGCCAUGGAAACAUGGCGGCGGCUUGAGCGCGAGGACCGGUACGGCCGCCACUCGGGCAACAUGAGGAUCACCCAUGUUCCUCAU [ETA NP+V+V2 #19]", "apparent KD of MS2 coat protein": 113}, {"sequence": "GGAUGCCACUAUGGAUAGCACGAUGCCGAUACCAGCUAGGAAACUAGCCCUUGGCAGCGGAACAUGAGGAUCACCCAUGUAUCCU [EThA NP+V+V2 #8]", "apparent KD of MS2 coat protein": 24.2}, {"sequence": "GGAGGUACCUGAAGGAGCGACAUGAGGAUCACCCAUGUCUCCCGUUAUGGGAGUUCUUUAGGUCAGGUAGGUCGCAGGUACCUCC [#1 Exclusion - Arginine B Attempt #3 (Inspired by Omei)]", "apparent KD of MS2 coat protein": 88.2}, {"sequence": "AACAUACAAUUUUAGGUGGAUAUAAGGCGGCGAGGACCGGUACGGCCGCCACUCGCGUACAUGAGGAUCACCCAUGUCUGAAGCU [Same State - Tryptophan A (Freestyle 6)]", "apparent KD of MS2 coat protein": 21.7}, {"sequence": "AGUGAUGACCGAAGGAGCGCGGGAAACAUGAGGAUCACCCAUGUACUCCUCAGUGUUAUAACGCAGGUAGGUCGCGGUUAUGGCU [X-ArgiB-ms2@26]", "apparent KD of MS2 coat protein": 180}, {"sequence": "GCAUCCUAGUCGGCCGCCACUGCGGAUCCGGUUCUAGAUCCUUAACAUGAGGAUCACCCAUGUAGCAGGACCGGGACUAGGAUGC [(Trp1)-(TM)''-(TM)'-(Ms2)-(Trp2)_Design2]", "apparent KD of MS2 coat protein": 237}, {"sequence": "AGAUUCGACACGGCCGCCACUUGUGGUGGAGGGUCUUUAGUCACACAUGAGGAUCACCCAUGUACAAGGACCGGGUGUUGAGUCU [XTryp B #23]", "apparent KD of MS2 coat protein": 19.3}, {"sequence": "UACCGAUACGGAAGGAGCGUAGAAGUAGUACAUGAGGAUCACCCAUGUAUGGGUAAUUUCGUACAGGUAGGUCGCCGUAUCGGUA [SSAB NP+V+V2 #23]", "apparent KD of MS2 coat protein": 31.8}, {"sequence": "UCGACGAUGACCAAAGGUCAGGAGUACGUACGAGGACCGGUACGGCCGCCACUCGAGGAGUGGGACAUGAGGAUCACCCAUGUGG [#20 Exclusion Tryptophan A]", "apparent KD of MS2 coat protein": 38.2}, {"sequence": "UACAUAUGCCGAAGGAGCGCGAGAUGCAAAGCAUCAUUCCUCACAUGAGGAUCACCCAUGUCGCAGGUAGGUCGCGGCAUAUGUU [ArgBX]", "apparent KD of MS2 coat protein": 32.5}, {"sequence": "UGAUGGAACGGAAGGAGCGUGUAAGAACAAGAACAUGAGGAUCACCCAUGUAUUAAUUUAACACAGGUAGGUCGCCGAGUUAUUG [11.F]", "apparent KD of MS2 coat protein": 16.9}, {"sequence": "ACAUGAGGAUCACCCAUGUAAUUUACAGAAGGAGCGUGAUGGAUCACAGGUAGGUCGCUGUACUGCGAAAGCACUCUCAUGAAUA [JR_Nu_SSArginiA_Sub025]", "apparent KD of MS2 coat protein": 16.8}, {"sequence": "GCUGUACCAUGAAGGAGCGUCAUGGAUUGCGAAUACACAUGAGGAUCACCCAUGUUUUUAUGACAGGUAGGUCGCAUGGUACAGC [#01 Same State - Arginine B]", "apparent KD of MS2 coat protein": 14.5}, {"sequence": "ACAUGAGGAUCACCCAUGUAUUACCGGGAAGGAGCGCGUAAGGACGCAGGUAGGUCGCUCGGCGUCUGGCCGCAAGGCUGGACGA [#1 Same State - Arginine A Attempt #18 (HarryS)]", "apparent KD of MS2 coat protein": 15.5}, {"sequence": "CAUUGUUAGACGGCCGCCACUUUUGGUUCGGAACGAUCGAUUGGACAUGAGGAUCACCCAUGUGGAAGGACCGGGUCUAAUCAAA [theeternabot_sameState_MS2_Trp_B_20]", "apparent KD of MS2 coat protein": 165}, {"sequence": "AAGUGGCACGGAAGGAGCGAGUUUGCCUAUUACAUGAGGAUCACCCAUGUGGGUAAUGGGACUCAGGUAGGUCGCCGUUGUCACU [Same State Arginine B GF 26]", "apparent KD of MS2 coat protein": 56.8}, {"sequence": "AGAGAUGAACAUGAGGAUCACCCAUGUAAACGAGGACCGGUACGGCCGCCACUCGUGGGUGUAAUAGAAUAAUAAGAGAAUAAUA [Turkey 1]", "apparent KD of MS2 coat protein": 63.2}, {"sequence": "GGGCUUGUGGUGCGGCGUGUUCCGCUCCGUCGAGGACCGGUACGGCCGCCACUCGACAUGAGGAUCACCCAUGUGCGAGCGCGCG [#1 Exclusion - Tryptophan A Attempt #7 (HarryS)]", "apparent KD of MS2 coat protein": 17.3}]}, {"system": "MS2 coat protein", "assay": "apparent KD of MS2 coat protein; higher = weaker reporter binding", "details": "Eterna round: R107; input ligand: theophylline 20 uM", "description": "as §1", "units": {"apparent KD of MS2 coat protein": "nM"}, "values": [{"sequence": "AGCCAUGGAAACAUGGCGGCGGCUUGAGCGCGAGGACCGGUACGGCCGCCACUCGGGCAACAUGAGGAUCACCCAUGUUCCUCAU [ETA NP+V+V2 #19]", "apparent KD of MS2 coat protein": 104}, {"sequence": "AGCGUUCGGUUUAUGCCGGACAAUGGGUGACGAGGACCGGUACGGCCGCCACUCGGGCGCCCGGUUACAUGAGGAUCACCCAUGU [Oresrile]", "apparent KD of MS2 coat protein": 190}, {"sequence": "AUUAAUAGUUGUGAUACCAGACGAACAUGAGGAUCACCCAUGUAACUUAAGAGUGUUGAUGUCCCUUGGCAGCACUGUUUAGUUA [JR_SSTheophyB_Sub015]", "apparent KD of MS2 coat protein": 105}, {"sequence": "GGAUGCCACUAUGGAUAGCACGAUGCCGAUACCAGCUAGGAAACUAGCCCUUGGCAGCGGAACAUGAGGAUCACCCAUGUAUCCU [EThA NP+V+V2 #8]", "apparent KD of MS2 coat protein": 30.5}, {"sequence": "AUAUGAUCAUGUGAUACCAGAAAUGGUAGUCCUCGCUGGAUUACAUGAGGAUCACCCAUGUUCCCUUGGCAGCAUAUGAUCAUAU [#02 Exclusion-TheophyllineB]", "apparent KD of MS2 coat protein": 122}, {"sequence": "GGUAUGUAUUCGGAAACGAAUGCAUACCAACGAGGACCGGUACGGCCGCCACUCGGCGGCGAUCAACAUGAGGAUCACCCAUGUA [Ex Tryptophan A 3]", "apparent KD of MS2 coat protein": 43.7}, {"sequence": "AGAUUCGACACGGCCGCCACUCGUGACAGAUUUCGCAGUGGUCAACAUGAGGAUCACCCAUGUCUGAGGACCGGGUGUUGAGUCU [XTryp B #9]", "apparent KD of MS2 coat protein": 39.3}, {"sequence": "AACAUACAAUUUUAGGUGGAUAUAAGGCGGCGAGGACCGGUACGGCCGCCACUCGCGUACAUGAGGAUCACCCAUGUCUGAAGCU [Same State - Tryptophan A (Freestyle 6)]", "apparent KD of MS2 coat protein": 21.7}, {"sequence": "AGUGAUGACCGAAGGAGCGCGGGAAACAUGAGGAUCACCCAUGUACUCCUCAGUGUUAUAACGCAGGUAGGUCGCGGUUAUGGCU [X-ArgiB-ms2@26]", "apparent KD of MS2 coat protein": 296}, {"sequence": "GCAUCCUAGUCGGCCGCCACUGCGGAUCCGGUUCUAGAUCCUUAACAUGAGGAUCACCCAUGUAGCAGGACCGGGACUAGGAUGC [(Trp1)-(TM)''-(TM)'-(Ms2)-(Trp2)_Design2]", "apparent KD of MS2 coat protein": 251}, {"sequence": "AGAUUCGACACGGCCGCCACUUGUGGUGGAGGGUCUUUAGUCACACAUGAGGAUCACCCAUGUACAAGGACCGGGUGUUGAGUCU [XTryp B #23]", "apparent KD of MS2 coat protein": 14.2}, {"sequence": "UACUUGCUGACGGCCGCCACUAGAACAUGAGGAUCACCCAUGUAGGUCCUAGAUUCCUCAUGAACUAGGACCGGGUCAGCAAGAU [(Trp1)-(Ms2)-(T)'-(M)'-(Trp2)_Design15]", "apparent KD of MS2 coat protein": 201}, {"sequence": "GCUAGGUCUACGGCCGCCACUAGACAUGGGUAAGACAUGAGGAUCACCCAUGUACUACGAGUGCAUAGGACCGGGUAGACCUAGC [SSTB NP+V+V2 #19 +-Same Structure]", "apparent KD of MS2 coat protein": 277}, {"sequence": "GGUGAUCCGUAUCACCGGAUCACCGGUGAUACCAGCAUCGAAAGAUGCCCUUGGCAGCACCAACAUGAGGAUCACCCAUGUAAUA [(M)'-(T)'-(M)''-(T1)-(T2)-(M1)-(M2)_Design6b]", "apparent KD of MS2 coat protein": 62.4}, {"sequence": "ACUCGACCAUCAGCCAUUUGUGAAUCACGGCGAGGACCGGUACGGCCGCCACUCGACAUGAGGAUCACCCAUGUAAGACCGGUGU [vmullin3]", "apparent KD of MS2 coat protein": 37.8}, {"sequence": "AUUAUCAUGGUCAUAUAUAUAUCGUCAGAUACCAGACUAGAUAUAGUCCCUUGGCAGCUGUUACAUGAGGAUCACCCAUGUUAUA [JR_ExcTheophyA_Sub015]", "apparent KD of MS2 coat protein": 80.1}, {"sequence": "UACCGAUACGGAAGGAGCGUAGAAGUAGUACAUGAGGAUCACCCAUGUAUGGGUAAUUUCGUACAGGUAGGUCGCCGUAUCGGUA [SSAB NP+V+V2 #23]", "apparent KD of MS2 coat protein": 38.3}]}]}
